The text below walks through data of paper PMC4990313 (ACS Catalysis, 2013).

This data set concerns the molecule itself. The experiment in a line: crystal structure; sitting drop vapor diffusion at 20 °C, 100 mM KH2PO4/citrate pH 4.0-5.0, PEG 300 35-50%; holo, NADP(H)-soaked (binary) and NADP+ + HMCA-soaked (ternary) crystals; dimer interface analysed with PISA.

B1: double bond reductase from Nicotiana tabacum (NtDBR) (enzyme, UniProt Q9SLN8 1-343, looked up)
chain: MAEEVSNKQVILKNYVTGYPKESDMEIKNVTIKLKVPEGSNDVVVKNLYLSCDPYMRSRMRKIEGSYVESFAPGSPITGYGVAKVLESGDPKFQKGDLVWGMTGWEEYSIITPTQTLFKIHDKDVPLSYYTGILGMPGMTAYAGFHEVCSPKKGETVFVSAASGAVGQLVGQFAKMLGCYVVGSAGSKEKVDLLKSKFGFDEAFNYKEEQDLSAALKRYFPDGIDIYFENVGGKMLDAVLVNMKLYGRIAVCGMISQYNLEQTEGVHNLFCLITKRIRMEGFLVFDYYHLYPKYLEMVIPQIKAGKVVYVEDVAHGLESAPTALVGLFSGRNIGKQVVMVSRE
Usually stoichiometry N stands for the number of molecules, sites or subunits per partner or assembly. Consider B1, for which the “stoichiometry N” value was 2.
